Reference: patent US20230348603A1 (VERSEAU THERAPEUTICS, published 2023)

T1: Cynomolgus Monkey VSIG4-L-His (cynomolgus monkey)
T1 construct: ECD with His tag; also called cyVSIG4-L; cyno VSIG4-L-His
T1 chain: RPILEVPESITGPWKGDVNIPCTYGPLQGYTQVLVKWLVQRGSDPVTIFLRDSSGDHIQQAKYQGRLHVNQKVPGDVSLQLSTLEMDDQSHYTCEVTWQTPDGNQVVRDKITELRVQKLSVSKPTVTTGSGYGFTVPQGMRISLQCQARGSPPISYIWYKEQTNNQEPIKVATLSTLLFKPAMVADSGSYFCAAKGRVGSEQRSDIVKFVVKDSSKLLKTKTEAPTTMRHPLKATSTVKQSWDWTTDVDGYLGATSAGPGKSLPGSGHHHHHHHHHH

T2: Human VSIG4-L-His (human, UniProt Q9Y279 20-283)
T2 construct: long isoform ECD with His tag; also called hVSIG4-L
T2 sequence: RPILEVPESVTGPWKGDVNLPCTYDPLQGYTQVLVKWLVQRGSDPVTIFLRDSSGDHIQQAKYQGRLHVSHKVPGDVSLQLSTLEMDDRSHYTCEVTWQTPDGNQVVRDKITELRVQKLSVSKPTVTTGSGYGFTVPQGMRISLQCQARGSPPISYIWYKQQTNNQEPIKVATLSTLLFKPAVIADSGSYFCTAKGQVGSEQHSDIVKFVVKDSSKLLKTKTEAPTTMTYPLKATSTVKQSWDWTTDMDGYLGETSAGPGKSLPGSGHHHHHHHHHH


Key:
[1] = target: T1, Cynomolgus Monkey VSIG4-L-His; experiment: BLI, IgG on AHC sensor, antigen 100 nM
Human VSIG4-L-His = target: T2, Human VSIG4-L-His; experiment: BLI, IgG on AHC sensor, antigen 100 nM

KD relative to parental chimera [1] | KD relative to parental chimera (Human VSIG4-L-His) | Binder
0.9 fold | – | h13H11.H humanized IgG4 (S228P) kappa (antibody, V domains shown) VH: QIQLVQSGSELKKPGASVKVSCKASGYTFENFGMNWVRQAPGQGLEWMGWINTYTGEATYADDFKGRFVFSLDTSVSTAYLQISSLKAEDTAVYYCARDGGFRHFDVWGQGTTVTVSS VL: DTQVTQSPSSLSASVGDRVTITCQTSTDISNYMNWYQQKPGKAPKLLISEGNTLRPGVPSRFSSSGSGTDFTFTISSLQPEDIATYYCLQSDNLPLTFGGGTKLEIKR
1.1 fold | 1.8 fold | h13H11.F humanized IgG4 (S228P) kappa (antibody, V domains shown) VH: QIQLVQSGSELKKPGASVKVSCKASGYTFENFGMNWVRQAPGQGLEWMGWINTYTGEATYADDFKGRFVFSLDTSVSTAYLQISSLKAEDTAVYYCARDGGFRHFDVWGQGTTVTVSS VL: ETQVTQSPSSLSASVGDRVTITCQTSTDIDDDMNWYQQKPGKAPKLLISEGNTLRPGVPSRFSSSGYGTDFTFTISSLQPEDIATYYCLQSDNLPLTFGGGTKLEIKR
1 fold | 2.6 fold | h13H11.A humanized IgG4 (S228P) kappa (antibody, V domains shown) VH: QIQLVQSGSELKKPGASVKVSCKASGYTFENFGMNWVRQAPGQGLEWMGWINTYTGEATYADGFTGRFVFSLDTSVSTAYLQISSLKAEDTAVYYCARDGGFRHFDVWGQGTTVTVSS VL: ETQVTQSPSSLSASVGDRVTITCQTSTDIDDDMNWYQQKPGKAPKLLISEGNTLRPGVPSRFSSSGYGTDFTFTISSLQPEDIATYYCLQSDNLPLTFGGGTKLEIKR
1.7 fold | 0.8 fold | h13H11.D humanized IgG4 (S228P) kappa (antibody, V domains shown) VH: QIQLVQSGSELKKPGASVKVSCKASGYTFENFGMNWVRQAPGQGLEWMGWINTYTGEATYADGFTGRFVFSLDTSVSTAYLQISSLKAEDTAVYYCARDGGFRHFDVWGQGTTVTVSS VL: DTQVTQSPSSLSASVGDRVTITCQTSTDISNYMNWYQQKPGKAPKLLISEGNTLRPGVPSRFSSSGSGTDFTFTISSLQPEDIATYYCLQSDNLPLTFGGGTKLEIKR
0.9 fold | 1.2 fold | h13H11.G humanized IgG4 (S228P) kappa (antibody, V domains shown) VH: QIQLVQSGSELKKPGASVKVSCKASGYTFENFGMNWVRQAPGQGLEWMGWINTYTGEATYADDFKGRFVFSLDTSVSTAYLQISSLKAEDTAVYYCARDGGFRHFDVWGQGTTVTVSS VL: DTQVTQSPSSLSASVGDRVTITCQTSTDIDDDMNWYQQKPGKAPKLLISEGNTLRTGVPSRFSSSGSGTDFTFTISSLQPEDIATYYCLQSDNLPLTFGGGTKLEIKR

Further lines, the binder ahead of its results:

Binder | KD relative to parental chimera [1] | KD relative to parental chimera (Human VSIG4-L-His)
h13H11.C humanized IgG4 (S228P) kappa (antibody, V domains shown) VH: QIQLVQSGSELKKPGASVKVSCKASGYTFENFGMNWVRQAPGQGLEWMGWINTYTGEATYADGFTGRFVFSLDTSVSTAYLQISSLKAEDTAVYYCARDGGFRHFDVWGQGTTVTVSS VL: DTQVTQSPSSLSASVGDRVTITCQTSTDIDDDMNWYQQKPGKAPKLLISEGNTLRTGVPSRFSSSGSGTDFTFTISSLQPEDIATYYCLQSDNLPLTFGGGTKLEIKR | 3.7 fold | 1.2 fold
h12A12.E humanized IgG4 (S228P) kappa (antibody, V domains shown) VH: QVQMVQSGAEVKKPGASVKVSCKASGYTFTNYWMHWVRQAPGQGLEWMGYINPSTGYTDYNQKFQGRVTMTADKSTSTAYMELSSLRSEDTAVYYCIRGSDYYGRDYWGQGTTVTVSS VL: DIQMTQSPSSLSASVGDRVTITCQASQDISNYLNWYQQKPGKAPKLLIYYTSRLHSGVPSRFSGSGSGTDYTFTISSLQPEDIATYYCRQGNTLPWTFGGGTKLEIKR | 0.6 fold | 0.6 fold
h12A12.F humanized IgG4 (S228P) kappa (antibody, V domains shown) VH: QVQMVQSGSELKKPGASVKVSCKASGYTFTNYWMHWVRQAPGQGLEWIGYINPSTGYTDYNQGFTGRFVLSADKSSSTAYLQISSLKAEDTAVYYCIRGSDYYGRDYWGQGTTVTVSS VL: DIQMTQSPSSLSASVGDRVTITCQASQDISNYLNWYQQKPGKAPKLLIYYTSRLHSGVPSRFSGSGSGTDYTFTISSLQPEDIATYYCRQGNTLPWTFGGGTKLEIKR | 0.4 fold | 0.4 fold
h12A12.C humanized IgG4 (S228P) kappa (antibody, V domains shown) VH: QVQMVQSGSELKKPGASVKVSCKASGYTFTNYWMHWVRQAPGQGLEWIGYINPSTGYTDYNQGFTGRFVLSADKSSSTAYLQISSLKAEDTAVYYCIRGSDYYGRDYWGQGTTVTVSS VL: DIQMTQSPSSLSASVGDRVTITCQASQDISNYLNWYQQKPGKALKLLIYYTSRLHTGVPSRFSGSGSGTDYTFTISSLQPEDIATYYCRQGNTLPWTFGGGTKLEIKR | 0.5 fold | 0.5 fold
h12A12.H humanized IgG4 (S228P) kappa (antibody, V domains shown) VH: QVQLVQSGSELKKPGASVKVSCKASGYTFTNYWMHWVRQAPGQGLEWMGYINPSTGYTDYNQGFTGRFVFSADTSVSTAYLQISSLKAEDTAVYYCIRGSDYYGRDYWGQGTTVTVSS VL: DIQMTQSPSSLSASVGDRVTITCQASQDISNYLNWYQQKPGKAPKLLIYYTSRLHSGVPSRFSGSGSGTDYTFTISSLQPEDIATYYCRQGNTLPWTFGGGTKLEIKR | 1 fold | 0.8 fold
h12A12.B humanized IgG4 (S228P) kappa (antibody, V domains shown) VH: QVQMVQSGAEVKKPGASVKVSCKASGYTFTNYWMHWVRQAPGQGLEWMGYINPSTGYTDYNQKFQGRVTMTADKSTSTAYMELSSLRSEDTAVYYCIRGSDYYGRDYWGQGTTVTVSS VL: DIQMTQSPSSLSASVGDRVTITCQASQDISNYLNWYQQKPGKALKLLIYYTSRLHTGVPSRFSGSGSGTDYTFTISSLQPEDIATYYCRQGNTLPWTFGGGTKLEIKR | 0.7 fold | 0.6 fold
h12A12.A humanized IgG4 (S228P) kappa (antibody, V domains shown) VH: QVQMVQSGAEVKKPGASVKVSCKASGYTFTNYWMHWVRQAPGQGLEWMGYINPSTGYTDYNQKFQGRVTMTADKSTSTAYMELSSLRSEDTAVYYCIRGSDYYGRDYWGQGTTVTVSS VL: DIQMTQSPSSLSASVGDRVTITCQASQDISNYLNWYQQKPGKALKLLIYYTSRLHSGVPSRFSGSGSGTDYTFTISSLQPEDIATYFCRQGNTLPWTFGGGTKLEIKR | 1 fold | 0.7 fold
h12A12.G humanized IgG4 (S228P) kappa (antibody, V domains shown) VH: QVQLVQSGAEVKKPGASVKVSCKASGYTFTNYWMHWVRQAPGQGLEWMGYINPSTGYTDYNQKFQGRVTMTADTSTSTVYMELSSLRSEDTAVYYCIRGSDYYGRDYWGQGTTVTVSS VL: DIQMTQSPSSLSASVGDRVTITCQASQDISNYLNWYQQKPGKAPKLLIYYTSRLHSGVPSRFSGSGSGTDYTFTISSLQPEDIATYYCRQGNTLPWTFGGGTKLEIKR | 1.1 fold | 0.7 fold
h12A12.D humanized IgG4 (S228P) kappa (antibody, V domains shown) VH: QVQMVQSGSELKKPGASVKVSCKASGYTFTNYWMHWVRQAPGQGLEWMGYINPSTGYTDYNQGFTGRFVFSADKSVSTAYLQISSLKAEDTAVYYCIRGSDYYGRDYWGQGTTVTVSS VL: EIVMTQSPATLSLSPGERATLSCRASQDISNYLNWYQQKPGQALRLLIYYTSRRHTGIPARFSGSGSGTDYTLTISSLEPEDFAVYYCRQGNTLPWTFGGGTKLEIKR | 1.2 fold | 1.1 fold
